# Numbered stars: 1 amine (or outer) side, 2 acyl side, 3 side chain; on linkers, the order of the positions; unused ones are H or OH. Bridge positions count the residues as written; N and C are the ends. Square brackets hold non-standard residues; d marks the D form. 1S4RAcpc = (1S,4R)-4-Aminocyclopent-2-ene-1-carboxylic acid, O=C([C@@H]1C=C[C@H](N[*:1])C1)[*:2]; bhcLeu = (1R,3S)-3-aminocyclopentane-1-carboxylic acid, O=C([C@@H]1CC[C@H](N[*:1])C1)[*:2]; dPro4cPr = (R)-5-Azaspiro[2.4]heptane-6-carboxylic acid, O=C([C@H]1CC2(CC2)CN1[*:1])[*:2]; FX1 = N5-(Pyridin-3-yl)-L-glutamine, O=C(CC[C@H](N[*:1])C(=O)[*:2])Nc1cccnc1; hSOMe = (S)-2-Amino-4-methoxybutanoic acid, COCC[C@H](N[*:1])C(=O)[*:2]; Trp(βS-Me,7-OMe) = COc1cccc2c([C@H](C)[C@H](N)C(=O)O)c[nH]c12; Phe(4-CH2SO3H) = N[C@@H](Cc1ccc(CS(=O)(=O)O)cc1)C(=O)O; Trp(7-Cl) = N[C@@H](Cc1c[nH]c2c(Cl)cccc12)C(=O)O; Phe(4-CONH2) = NC(=O)c1ccc(C[C@H](N)C(=O)O)cc1; Phe(4-COOH) = N[C@@H](Cc1ccc(C(=O)O)cc1)C(=O)O; Trp(7-aza) = N[C@@H](Cc1c[nH]c2ncccc12)C(=O)O; Pip(5R-OH) = O=C(O)[C@@H]1CC[C@@H](O)CN1; Tyr(2-F) = N[C@@H](Cc1ccc(O)cc1F)C(=O)O; AEF = NCCOc1ccc(C[C@H](N)C(=O)O)cc1; Val(3-OH) = CC(C)(O)[C@H](N)C(=O)O; Pip(4-aza) = O=C(O)[C@@H]1CNCCN1; 4Pal = N[C@@H](Cc1ccncc1)C(=O)O; NMeE = CN[C@@H](CCC(=O)O)C(=O)O; dHyp = O=C(O)[C@H]1C[C@H](O)CN1; NMeS = CN[C@@H](CO)C(=O)O; αMeS = C[C@](N)(CO)C(=O)O; Nle = CCCC[C@H](N)C(=O)O; Pip2c = not defined here; Bhv = not defined here; Sar = CNCC(=O)O
# T1: TNFR1 on THP-1 Lucia NF-κB cells (UniProt P19438 30-455, limits assumed)
# T1 sequence (looked up): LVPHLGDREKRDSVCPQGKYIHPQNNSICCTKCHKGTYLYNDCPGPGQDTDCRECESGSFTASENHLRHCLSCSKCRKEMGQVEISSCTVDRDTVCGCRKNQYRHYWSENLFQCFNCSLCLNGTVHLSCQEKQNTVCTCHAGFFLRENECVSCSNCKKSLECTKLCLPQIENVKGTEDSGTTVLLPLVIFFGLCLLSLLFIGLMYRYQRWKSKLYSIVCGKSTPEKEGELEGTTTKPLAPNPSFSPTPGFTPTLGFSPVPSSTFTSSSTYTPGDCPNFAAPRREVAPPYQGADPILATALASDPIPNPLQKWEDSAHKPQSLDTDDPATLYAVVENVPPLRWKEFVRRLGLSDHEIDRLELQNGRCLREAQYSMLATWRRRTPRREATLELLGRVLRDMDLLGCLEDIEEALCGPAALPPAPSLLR
# Target: T1, TNFR1 on THP-1 Lucia NF-κB cells
# Assay: cell-based or functional assay
row,Binder,THP-1 IC50 [nM]
1,"cyclo([bhcLeu][Nle][4Pal][Pip(4-aza)]W[NMeE]N[Phe(4-CH2SO3H)][Trp(7-Cl)][αMeS][Phe(4-COOH)]Y[Sar][Trp(βS-Me,7-OMe)]) (SMILES CCCC[C@@H]1NC(=O)[C@@H]2CC[C@@H](C2)NC(=O)[C@H]([C@@H](C)c2c[nH]c3c(OC)cccc23)NC(=O)CN(C)C(=O)[C@H](Cc2ccc(O)cc2)NC(=O)[C@H](Cc2ccc(C(=O)O)cc2)NC(=O)[C@](C)(CO)NC(=O)[C@H](Cc2c[nH]c3c(Cl)cccc23)NC(=O)[C@H](Cc2ccc(CS(=O)(=O)O)cc2)NC(=O)[C@H](CC(N)=O)NC(=O)[C@H](CCC(=O)O)N(C)C(=O)[C@H](Cc2c[nH]c3ccccc23)NC(=O)[C@@H]2CNCCN2C(=O)[C@H](Cc2ccncc2)NC1=O) [SEQ ID NO. 171]",0.9
2,"{CH2CO}-[Nle][PyrimAla][Bhv][Trp(7-aza)][NMeE]N[4Pal][Trp(7-Cl)][αMeS][Phe(4-COOH)]Y[Sar][Trp(βS-Me,7-OMe)]C-NH2 (thioether N-14; reading uncertain; also: printed as cyclo(ClAc-Nle-PyrimAla-Bhv-Trp7az-NMeE-N-4Pal-Trp7Cl-aMeS-Phe4COOH-Y-Sar-SbMeW7OMe-C)-NH2) [SEQ ID NO. 177]",3.3
3,"cyclo([bhcLeu][Nle][4Pal][Pip(4-aza)]W[NMeE]N[4Pal][Trp(7-Cl)][αMeS][Phe(4-COOH)][Tyr(2-F)][Sar][Trp(βS-Me,7-OMe)]) (SMILES CCCC[C@@H]1NC(=O)[C@@H]2CC[C@@H](C2)NC(=O)[C@H]([C@@H](C)c2c[nH]c3c(OC)cccc23)NC(=O)CN(C)C(=O)[C@H](Cc2ccc(O)cc2F)NC(=O)[C@H](Cc2ccc(C(=O)O)cc2)NC(=O)[C@](C)(CO)NC(=O)[C@H](Cc2c[nH]c3c(Cl)cccc23)NC(=O)[C@H](Cc2ccncc2)NC(=O)[C@H](CC(N)=O)NC(=O)[C@H](CCC(=O)O)N(C)C(=O)[C@H](Cc2c[nH]c3ccccc23)NC(=O)[C@@H]2CNCCN2C(=O)[C@H](Cc2ccncc2)NC1=O) [SEQ ID NO. 175]",0.9
4,"cyclo([bhcLeu][FX1][4Pal][NMeS]W[NMeE]N[4Pal][Trp(7-Cl)][αMeS][Phe(4-COOH)]Y[Sar][Trp(βS-Me,7-OMe)]) (SMILES COc1cccc2c([C@H](C)[C@@H]3NC(=O)CN(C)C(=O)[C@H](Cc4ccc(O)cc4)NC(=O)[C@H](Cc4ccc(C(=O)O)cc4)NC(=O)[C@](C)(CO)NC(=O)[C@H](Cc4c[nH]c5c(Cl)cccc45)NC(=O)[C@H](Cc4ccncc4)NC(=O)[C@H](CC(N)=O)NC(=O)[C@H](CCC(=O)O)N(C)C(=O)[C@H](Cc4c[nH]c5ccccc45)NC(=O)[C@H](CO)N(C)C(=O)[C@H](Cc4ccncc4)NC(=O)[C@H](CCC(=O)Nc4cccnc4)NC(=O)[C@@H]4CC[C@@H](C4)NC3=O)c[nH]c12) [SEQ ID NO. 166]",2.7
5,"{CH2CO}-[Nle][4Pal][Pip(4-aza)]W[dPro4cPr]N[4Pal][Trp(7-Cl)][αMeS][Phe(4-COOH)]Y[Sar][Trp(βS-Me,7-OMe)]C-NH2 (thioether N-14; SMILES CCCC[C@@H]1NC(=O)CSC[C@@H](C(N)=O)NC(=O)[C@H]([C@@H](C)c2c[nH]c3c(OC)cccc23)NC(=O)CN(C)C(=O)[C@H](Cc2ccc(O)cc2)NC(=O)[C@H](Cc2ccc(C(=O)O)cc2)NC(=O)[C@](C)(CO)NC(=O)[C@H](Cc2c[nH]c3c(Cl)cccc23)NC(=O)[C@H](Cc2ccncc2)NC(=O)[C@H](CC(N)=O)NC(=O)[C@H]2CC3(CC3)CN2C(=O)[C@H](Cc2c[nH]c3ccccc23)NC(=O)[C@@H]2CNCCN2C(=O)[C@H](Cc2ccncc2)NC1=O) [SEQ ID NO. 167]",2.6
6,"{CH2CO}-[Nle][4Pal][Pip2c][Trp(7-aza)][NMeE]N[4Pal][Trp(7-Cl)][αMeS][Phe(4-COOH)][TyrOCF3][Sar][Trp(βS-Me,7-OMe)]C-NH2 (thioether N-14; reading uncertain; also: printed as cyclo(ClAc-Nle-4Pal-Pip2c-Trp7az-NMeE-N-4Pal-Trp7Cl-aMeS-Phe4COOH-TyrOCF3-Sar-SbMeW7OMe-C)-NH2) [SEQ ID NO. 158]",5.3
7,"cyclo([bhcLeu][Nle][4Pal][Pip(5R-OH)]W[NMeE]N[AEF][Trp(7-Cl)][αMeS][Phe(4-CONH2)]Y[Sar][Trp(βS-Me,7-OMe)]) (SMILES CCCC[C@@H]1NC(=O)[C@@H]2CC[C@@H](C2)NC(=O)[C@H]([C@@H](C)c2c[nH]c3c(OC)cccc23)NC(=O)CN(C)C(=O)[C@H](Cc2ccc(O)cc2)NC(=O)[C@H](Cc2ccc(C(N)=O)cc2)NC(=O)[C@](C)(CO)NC(=O)[C@H](Cc2c[nH]c3c(Cl)cccc23)NC(=O)[C@H](Cc2ccc(OCCN)cc2)NC(=O)[C@H](CC(N)=O)NC(=O)[C@H](CCC(=O)O)N(C)C(=O)[C@H](Cc2c[nH]c3ccccc23)NC(=O)[C@@H]2CC[C@@H](O)CN2C(=O)[C@H](Cc2ccncc2)NC1=O) [SEQ ID NO. 145]",0.8
8,"{CH2CO}-[Nle][Phe(4-CONH2)][Val(3-OH)][Trp(7-aza)][NMeE]N[4Pal][Trp(7-Cl)][αMeS][Phe(4-COOH)]Y[Sar][Trp(βS-Me,7-OMe)]C-NH2 (thioether N-14; SMILES CCCC[C@@H]1NC(=O)CSC[C@@H](C(N)=O)NC(=O)[C@H]([C@@H](C)c2c[nH]c3c(OC)cccc23)NC(=O)CN(C)C(=O)[C@H](Cc2ccc(O)cc2)NC(=O)[C@H](Cc2ccc(C(=O)O)cc2)NC(=O)[C@](C)(CO)NC(=O)[C@H](Cc2c[nH]c3c(Cl)cccc23)NC(=O)[C@H](Cc2ccncc2)NC(=O)[C@H](CC(N)=O)NC(=O)[C@H](CCC(=O)O)N(C)C(=O)[C@H](Cc2c[nH]c3ncccc23)NC(=O)[C@H](C(C)(C)O)NC(=O)[C@H](Cc2ccc(C(N)=O)cc2)NC1=O) [SEQ ID NO. 164]",3.6

# More lines, now with the values ahead:
row,THP-1 IC50 [nM],Binder
1,3.3,"cyclo([bhcLeu][Nle][4Pal][Pip(4-aza)]W[NMeE]N[4Pal][Trp(7-Cl)][αMeS][Phe(4-COOH)]H[Sar][Trp(βS-Me,7-OMe)]) (SMILES CCCC[C@@H]1NC(=O)[C@@H]2CC[C@@H](C2)NC(=O)[C@H]([C@@H](C)c2c[nH]c3c(OC)cccc23)NC(=O)CN(C)C(=O)[C@H](Cc2c[nH]cn2)NC(=O)[C@H](Cc2ccc(C(=O)O)cc2)NC(=O)[C@](C)(CO)NC(=O)[C@H](Cc2c[nH]c3c(Cl)cccc23)NC(=O)[C@H](Cc2ccncc2)NC(=O)[C@H](CC(N)=O)NC(=O)[C@H](CCC(=O)O)N(C)C(=O)[C@H](Cc2c[nH]c3ccccc23)NC(=O)[C@@H]2CNCCN2C(=O)[C@H](Cc2ccncc2)NC1=O) [SEQ ID NO. 178]"
2,0.9,"{CH2CO}-[Nle][4Pal][Pip(5R-OH)]W[dHyp]N[Phe(4-COOH)][Trp(7-Cl)][αMeS][Phe(4-CONH2)]Y[Sar][Trp(βS-Me,7-OMe)]C-NH2 (thioether N-14; SMILES CCCC[C@@H]1NC(=O)CSC[C@@H](C(N)=O)NC(=O)[C@H]([C@@H](C)c2c[nH]c3c(OC)cccc23)NC(=O)CN(C)C(=O)[C@H](Cc2ccc(O)cc2)NC(=O)[C@H](Cc2ccc(C(N)=O)cc2)NC(=O)[C@](C)(CO)NC(=O)[C@H](Cc2c[nH]c3c(Cl)cccc23)NC(=O)[C@H](Cc2ccc(C(=O)O)cc2)NC(=O)[C@H](CC(N)=O)NC(=O)[C@H]2C[C@H](O)CN2C(=O)[C@H](Cc2c[nH]c3ccccc23)NC(=O)[C@@H]2CC[C@@H](O)CN2C(=O)[C@H](Cc2ccncc2)NC1=O) [SEQ ID NO. 185]"
3,0.9,"cyclo([1S4RAcpc][Nle][4Pal][Pip(4-aza)]W[NMeE]N[4Pal][Trp(7-Cl)][αMeS][Phe(4-COOH)]Y[Sar][Trp(βS-Me,7-OMe)]) (SMILES CCCC[C@@H]1NC(=O)[C@@H]2C=C[C@@H](C2)NC(=O)[C@H]([C@@H](C)c2c[nH]c3c(OC)cccc23)NC(=O)CN(C)C(=O)[C@H](Cc2ccc(O)cc2)NC(=O)[C@H](Cc2ccc(C(=O)O)cc2)NC(=O)[C@](C)(CO)NC(=O)[C@H](Cc2c[nH]c3c(Cl)cccc23)NC(=O)[C@H](Cc2ccncc2)NC(=O)[C@H](CC(N)=O)NC(=O)[C@H](CCC(=O)O)N(C)C(=O)[C@H](Cc2c[nH]c3ccccc23)NC(=O)[C@@H]2CNCCN2C(=O)[C@H](Cc2ccncc2)NC1=O) [SEQ ID NO. 182]"
4,1.2,"cyclo([bhcLeu][Nle][4Pal][Pip(4-aza)]W[NMeE][hSOMe][4Pal][Trp(7-Cl)][αMeS][Phe(4-COOH)]Y[Sar][Trp(βS-Me,7-OMe)]) (SMILES CCCC[C@@H]1NC(=O)[C@@H]2CC[C@@H](C2)NC(=O)[C@H]([C@@H](C)c2c[nH]c3c(OC)cccc23)NC(=O)CN(C)C(=O)[C@H](Cc2ccc(O)cc2)NC(=O)[C@H](Cc2ccc(C(=O)O)cc2)NC(=O)[C@](C)(CO)NC(=O)[C@H](Cc2c[nH]c3c(Cl)cccc23)NC(=O)[C@H](Cc2ccncc2)NC(=O)[C@H](CCOC)NC(=O)[C@H](CCC(=O)O)N(C)C(=O)[C@H](Cc2c[nH]c3ccccc23)NC(=O)[C@@H]2CNCCN2C(=O)[C@H](Cc2ccncc2)NC1=O) [SEQ ID NO. 181]"
